{"source": "the DeepSol protein solubility set"}
{"assay": "soluble on expression in E. coli; label from the status in PepcDB or PDB records"}
{"sequence": "SLVSAQRAIIDPEGKVLINKVNFIDGGLKAPDEVVRKMVRMGTNIIGEPVCGLYPARLIALTSGYSARIPYTIDLDFWMQLLRLGKLWMIDEPLCAFRISNLSWSSRIGEMRHKQFLAFMEEVAADELFQINDLDLFIGRFNSAVQSMTSLMGFKLFAGSAAEKRVIAVQ", "soluble on expression in E. coli": "not soluble"}
{"sequence": "MPYVERSNIVGLFGGSFNPPHEGHLLVAKTAIRRLRLNQLWWMVTPGNPLKDCTHLPPLEKRMRLSLELIDDPKIRVTGFEQAIGSKVSVETISHILAHYRRVHFVWIMGADSLATIHHWYRWHDIISMLPIAIIDRPLVHMSALSSSMAHIYRSFRLDERESIRLPFMKPPAWIYLHGALSFQSSTNLRLKENAFF", "soluble on expression in E. coli": "not soluble"}
{"sequence": "MPNNETEASMRNTLFPTLKWSLLVLMTSLLTACGFHLRGDYDIPQELSRMSLTSYDQYSTFTRMVHRQLRLNKIDLQAPAEDLPNLHLLSESTGERTLSLYQNTRAAEIELTFVASYRVTVPELGSRTFTTSVTRSYLDNPLTALAKSVERDMIEDEMRKLAASQIVRQMARLKADFARKTLDDESIEGKGITDYRVDTQEVANPVSTEGSSELEHHHHHH", "soluble on expression in E. coli": "soluble"}
{"sequence": "MESYSQRQDHELQALEAIYGSDFQDLRPDARGRVREPPEINLVLYPQGLAGEEVYVQVELRVKCPPTYPDVVPEIDLKNAKGLSNESVNLLKSHLEELAKKQCGEVMIFELAHHVQSFLSEHNK", "soluble on expression in E. coli": "soluble"}
{"sequence": "MGSDKIHHHHHHLPQLLSAMRGPGTRSPDMPYARKTLAQIRSDAMADIAAALQGSDPLLRFAALKIIGVVLAGMTNEEYGYLDWIAKQTNPFTADDEYLEAWGALKKVYRKDASAASLSATFTGVAGKLLDDGTPVVRSDGATYTTSGTQTVVGTSVTVTIVADVAGAAGNADPGTVVALDIAVDGIQSTGAVIGTVSSGADIEDQEDYRARVLAKYQQPPQGGAAPDYVEWATDVAGVTRAWCAPNGFGAGTVVVYVMLDDAQAAHGGFPQGTDGVSQHDQGPGGLPRGTVATGDQLVVADAIVTLQPGTALVWICSPVENVLSFELTGSAGWSTAIRNAVKAQISDVFFRNGDPRGGTIDRSDINSAIAAVPGTAGFVITSITGVISGTPTTYPANITGSFGSLPVLGEVTFG", "soluble on expression in E. coli": "not soluble"}
{"sequence": "IVPTRELENVFLGRCKDYEITRYLDILPRVRSDCSALWKDFFKAFSFKNPCDLDLGSYKDFFTSAQQQLPKNKVMFWSGVYDEAHDYANTGRKYITLEDTLPGYMLNSLVWCGQRANPGFNEKVCPDFKTCPVQARESFWGMASSSYAHSAEGEVTYMVDGSNPKVPAYRPDSFFGKYALPNLTNKVTRVKVIVLHRLGEKIIEKCGAGSLLDLEKLVKAKHFAFDCVENPRAVLFLLCSDNPNARECRLAKRFYRIA", "soluble on expression in E. coli": "soluble"}
{"sequence": "MEPPKLLGVVLTTALLFHIALTAKQAVVSRKSKLCGNVECEEVLFKARVKRVMGINNDPSFLNLAENAIISVVAVKFSDRPDIMEGKLNGEGSNGFFYAGAIDIMPFAEFLRTAITDKKEMLMISQNPADIGDKRIVGFLHSETDLVRDFNAKNAQAAAENGLPAPEPIPIPEPAHTGHGHSHGGHGHSHGGHGHSHGHPAPTPAPTPAPKPIEEAPKPAEEPVKPADLEMDAEIERLIKEEEERMKNVAEQPPLVLQSLPETPEAQKLPEEPLEPVTPEPIPEAPVPIAQYIQEPTTTPAPLEAPAPVENAPNLPTPTFSVDDLMAQAARDALNSNSIVPDAPKVEEPEPAPTPAPAPAEDPVVTPAPEELTGVCYKDDCQGLQTPPPPAPPPPAPAVPEEAQAPTPAPEEAPEAQIPAETAQIPPENAVPEAPEEPAPTTTPPPISAGEAEFLKWEEARQKREAVAAAPYEDAQAHQFVASPPPHVSSGLIELIRSSLGLGNITDSSVLLVVNLTFVAASFLVYIIIRSLSSGGESDILDRQAHFDLMNKHKQLQLQLNAKITEIQNLQANGAAAQRPEQPNYEPELLALRQQLAHLQSELQTAHAQRQEFEIHYHQIRELAEQKDHQIAQLTEQANDYQERLEKSQSELQELARHVDSARAELMDSQTSDYGRQQELMEKQAELEQIYVKIDNLTAENRDLTDKIAQLQVSDSLELEELEELRNKNLELQEQVKQLKEELEKEKSVAGSGNSGGWSDIDDNEVVEAVQPIETTPISSENSENLKKFEAEIAELKASLEKTEKELTKYRNLYNEKLTAISDKENRSQIEMEHKLKNAESDLQEAKRRAEEIGAEKKELSDRLNEMLKNLNQSMQKSAENDKMLTQLREEAFAKEKQLLEHDSVLRKKDDKIRELDAEFKRVKMEYVKLETKSFHDVRKLNMDVEELKTQLSMAGGVTSSRSIPDRLVSPLQEPIWDEPEPALQRVVLPLDGYSSMRRRSTRRSQLPFGAESPSDQEKKQAAPSHRRRSRSHGRQPPSFHDPYSMNPYLPGSSDSSFMSTSQPQFLPLNRQHSRSGHLMSNSANGPYSSGGSNGGRSPPPEMPLLSAIPPPGARKPLGKRPDSAHHLGK", "soluble on expression in E. coli": "not soluble"}
{"sequence": "MVRVDVEERFNRIARNTVEIVTEEELKGLLASGARIKGYIGYEPSGVAHIGWLVWMYKVKDLVEAGVDFSVLEATWHAYINDKLGGDMDLIRAAARIVRRVMEAAGVPVERVRFVDAEELASDKDYWGLVIRVAKRASLARVRRALTIMGRRAEEAEVDASKLIYPLMQVSDIFYMDLDIALGGMDQRKAHMLARDVAEKLGRKKPVAIHTPIISSLQGPGRMEASQGEIDDVLAEVKMSKSKPETAVFVVDSDDDIRRKIRKAYCPAKQVQGNPVLEIARYILFARDGFTLRVDRPAKYGGPVEYTSYEELERDYTDGRLHPLDLKNAVAESLIEVVRPIRGAVLGDPAMKRALEAIEGKVTR", "soluble on expression in E. coli": "soluble"}
{"sequence": "MGSDKIHHHHHHMYLESIELYSNITKAAAHLFISQPYLSKVIKQLENELEIKLIQSQGHQTFLTYAGQRYLFYLKEIDMIERQMAKELYLIRSDKKGEITLGINSGLASSILANVLPKFNLEHPEISVKLLENNQNISEQLVASGDIDLAVGMAPILYKDGIASTTIYRDELFLMIPTTSQLYNAEKRGQIIPFEYPISVLDNEPLILTPLEYGIGKTIAQFYELHHMSLNQMITTSTVPTAASLSLSGMGATFVPQTLIHRYLDKECNVYHFHKNKLFSEYIMIYKKDVELSGIALLLYKAFLTK", "soluble on expression in E. coli": "not soluble"}
{"sequence": "MAHHHHHHMEPNADEPKKTSSVRQLLRQQRELQEMRKFGLAPLAVDTETHQEISPNIPEFISRAPWYYGATGPTLVHQRKQGDSATEVSDEVLDEKVDRIVVKGQASRFTAGACKNCGSRTHKTSECFQAKKKVGSVYTNRVTGSDIETHQEAKTYSQKRDRFVGEVGIDLMRGVRQDQQDDNVDVAAPATARHRPEDVFGSRTAQHGGVEVKELPKYLHNLDQQDGLFFDPKTGSMRANPNSGDSTKAFRGDLERYRTGDYYNYVESQYRFLTGQSRSFVDFEFDDAMRRAREQQQEPQQQEQNSTRGPVTKVLTETPQDVLLRSLYGASQPKFDSDVLPSFTTESKTSAPSSSPAPPVDALATTATATVTAHSSVQAASLSWVTTRNGHAAVYGSYFDPIHFRWGYACCKRMGKDTTGCSATHA", "soluble on expression in E. coli": "soluble"}
{"sequence": "MGLQKKLNYKKTESERSFYRGSNLKQVMGEDIVSKFDYIGPIRWIFLNYCTGYFIFVEELTNNSEIRSDRLEFIDTMNKIFSEAEQYFNSAPKERPKNPKSLAEYKYLGYYRLSFSNTNPDNSAIIRLNDVEVEKSELPPLLNLDTDEILDYAV", "soluble on expression in E. coli": "not soluble"}
{"sequence": "MSLKYLGLCTDLYELTMAQSYLYEGKTGTAVFSLFVRKLPEKRNFLISAGLETLVERIKNFKFGDEEIKYLKSLGIFKDDFLDYLKDFEFSGNVYAIPEGRIVFQNEPLVQVEAPIPEAQLLETLVINTIQFETMIASKAVRSYLVAKGKKLVDFGFRRAHGLEAGILAARASYIAGFDGTSNVEAGREFGIPVVGTMAHSYVMIFDKEEDAFRAFAKLYPKNAIFLIDTYDTIEAAKKVVDLAKEGVPVVGVRIDSGDIVKLSKEVRKILDENGLKNVRIIVSGGVDEYKIKEWFDRGAPIDAFGVGTKFITSADAPYFDIAYKLVEYEGKPKYKLSPGKKTFPYKRQVYRYYENGKMKYDETAKWESKREGEPLVELVMKNGKLIKELPSLKEIREVVMSELEKLPENYKDITKHYEYEVKILDWEEGHHHHHH", "soluble on expression in E. coli": "not soluble"}
{"sequence": "MFLFSELCRRLSPDAVRIVSDHRIVHLLTDSRTLSEPATTLFFALRTTSGDGHLYIRDLYDRGVRSFVISDPSKDLMEKMPQANWMRVAHPLDALQRIAALRRSMFDIPVIGITGSNGKTIVKEFLYQLLRKDYRIVRSPRSYNSQIGVPLSVWQMAEEHTLGIFEAGISQMGEMERLE", "soluble on expression in E. coli": "not soluble"}
{"sequence": "MSNQKLSDGGACCSPLAREPLTEDWAGDLARMFKALGDPVRLRLLSLIASHAGGEACVCDISESFDLSQPTISHHLKVLRAAGLLDCERRGTWVYYWVIPSALQQLSAVLLTESGTAVPSPTCAEARA", "soluble on expression in E. coli": "not soluble"}
{"sequence": "MTTHLNPPQEAPYMKNATFYLLDNDTTVNGLSAVEQLVCEIAAERWRAGKRVLIACEDEKQAIRLDEALWARPAESFVPHNLAGEGPRGGAPVEIAWPQKRNSSPRDILISLRTSFADFATAFTEVVDFVPYEETLKQLARERYKAYRVAGFNLNTATWK", "soluble on expression in E. coli": "not soluble"}
{"sequence": "SDRWEVPVNPSNVRSASSHQTVSASDRASDKVDERPATFSHFQLARCGEDYTLSMVSLAAYQAERRHRGNLIKDRSQSALPWVQVYHSETGLDYSFQIDRTTTVKVAGFNYNVPNDGETRHLYSAGTSQVNMPVITDNMSACIAVACAAENVDAGTGERRPGAKVRVFHLLPFRREDLMPEQVLASVRDYLRDIKEQGLTMRVALHGGNREGDFSVSTAEALKSLFADEGIPIEFDETCANRTSETLLGAVILNDNSTQFIKH", "soluble on expression in E. coli": "not soluble"}
{"sequence": "MVDIEALQKAIGVTSLSYDEDDDDDDENDAFYSSSHRVSHNYNQPPLPPIPTRDDMSNYSSSRNTPLVRRD", "soluble on expression in E. coli": "not soluble"}
{"sequence": "MEAESAPQAPMSGGRVLKMVTEMGSATVGGISPALSANAAKSFLEATDKEKKTLQGLNDRLGNYIDRVKKLEEQNRKLVADLDELRGKWGKDTSEIKIKYSESLSTARKDIDDAARRKAEVDVKVARHRDDLAEYRSRYEDIQQRRESDREKISQWTNAIADAQSEVEMLRARFKQLTDEEKRVTADNSRIWEELQKARSDLDDETIGRIDFQNQVQTLMEELEFLRRVHEQEVKELQALLAQAPADTREFFKNELALAIRDIKDEYDIIAKQGKQDMESWYKLKVSEVQGSANRANMESTYQRDEVKRMRDNIGDLRGKLGDLENKNSLLEKEVQNLNYQLTDDQRQYEAALNDRDATLRRMREECQTLVAELQALLDTKQMLDAEIAIYRKMLEGEETRVGLTQMVEQAVKTHSLQQQENTDSTRSVRGEVSTKTTFQRSAKGNVTISECDPNGKFIKLENSHRNKDENVGEHKIRRKLDGRREIVYSIPANVVIKPGKNLTIYARDQGGINNPPESLVFDGENTWGIGANVVTSLVNKDGEERATHTQKTIQSGQ", "soluble on expression in E. coli": "not soluble"}
{"sequence": "MAEIDYKKVTGMIHSTESFGSVDGPGIRFIIFMQGCKMRCQYCHNPDTWEMETNNSKERTVEDVLKEALRYKHFWGKDGGITVSGGEAMLQIDFITALFIEAKKLGIHTTLDTCGFAYRATPEYHAILEKLLDVTDLVLLDLKEIDSEQHKIVTRQSNKNILQFARYLSDRGTPVWIRHVLVPGLTD", "soluble on expression in E. coli": "not soluble"}
